Measurements taken from patent publication US20100254965A1, “Adenosine Signaling in Diagnosis, Treatment, and Prevention of Priapism and Erectile Dysfunction” (BOARD OF REGENTS ,THE UNIVERSITY OF TEXAS SYSTEM, priority 2006, published 2010).
“Also recorded” adds a separate entry of the source.

Key:
ADA-deficient mice [1] = details: cited from earlier work
[2] = system: multiple animal models, including humans; details: in vivo; cited from earlier work
[3] = system: corpus cavernosal strips (CCS); test: Adenosine-induced relaxation of corpus cavernosal strips (CCS); type: cell-based, mouse; details: CCS of wild type mice, 1-10 μM, adenosine 100 μM
Description: FIG. 16. […] CCS of wild type mice were treated with different concentrations of adenosine with or without DCF (5 μM), a specific inhibitor of adenosine deaminase. Then the extent (mN) of force was monitored. (b) CCS of wild type mice were treated with 100 μM adenosine in the presence of different concentrations of DCF (0-100 uM). Then the extent of force was measured. Data are expressed as mean±SE. *p<0.05, adenosine treated versus the control, **p<0.05, DCF treated versus the adenosine treated.
FIG. 17. A2BR signaling is required for adenosine-mediated corpus cavernosal strips (CCS) relaxation. (a) CCS of wild type mice were treated with different concentrations of theophiline (1-10 μM) in the presence or absence of adenosine (100 μM). The force changes were measured by force transducer. Data are expressed as mean±SE. *p<0.05, adenosine treated versus the control, **p<0.05, theophiline treated versus the untreated, N=5. (b) CCS from wild type, A2AR, A1R A2BR and A3R-deficient mice were treated with different concentrations of adenosine. The relaxation was measured by force transducer. Data are expressed as mean±SE. *p<0.05, adenosine treated versus the wild type. (c) CCS were isolated from wild type and A2BR-deficient mice and treated with different concentrations of adenosine in the presence or absence of L-NAME (100 μM) or MRS1706 (10 μM). 10 min after treatment, cellular extracts were collected and cAMP levels were measured by using a commercial enzyme immunoassay kit (Amersham Pharmacia). Data are expressed as mean±SE. *p<0.05, adenosine treated versus the control without treatment; **p<0.05, adenosine treated with MRS1706 versus the adenosine treated alone; ***p<0.05, CCS of A2BR-deficient mice treated with adenosine versus the CCS of wild type mice treated with adenosine. N=6-7. (d) CCS of A2BR and ADA double deficient mice lost the hypersensitivity to nerve stimulation compared to ADA deficient mice.
(§1) Function experiments. The tunica albuginea was cut longitudinally, starting at the most proximal point of the corpus cavernosum (CC) toward the penile shaft, and the erectile tissue was partially dissected free from the tunica. One strip of tissue (0.3×0.3×3 mm) was obtained from each corpus cavernosum. The contractility of each isolated corpus cavernosum smooth muscle cells (CCSM) strip was measured using an isometric force transducer (AD Instrument Inc., Georgia, Vt., USA). The strip was mounted in a thermostatically controlled tissue bath containing aerated PSS (mM: 119 NaCl, 4.7 KCl, 24 NaHCO 3, 1.2 KH2PO4, 2.5 CaCl2, 1.2 MgSO4, 0.023 EDTA, and 11 glucose; 5 ml volume, 95% O2 and 5% CO2, 37° C.) and stretched to a resting tension of 0.1 mN. The contractile responses of the strips were analysed by adding 10 μM phenylephrine to the bath, and force changes were recorded in response to drug application and to electrical field stimulation. The particular electrical field stimulation parameters of 0-30V, 30 HZ with a pulse width of approximately 0.5 ms, are commonly used in the mice. […] The changes of cAMP and cGMP contents in CC strips were subsequently measured by commercial enzyme immunoassay kit (Amersham Pharmacia) (see below).

[4] = system: corpus cavernosal strips (CCS); test: EFS-induced relaxation of phenylephrine-precontracted corpus cavernosal strips (CCS) of ADA+ and ADA-/- mice; type: cell-based, mouse
From the text: Prolonged penile erection in ADA-deficient mice is associated with increased corpus cavernosal relaxation in response to nerve stimulation. To determine if the potent and prolonged penile erection seen in ADA-deficient mice is associated with increased corpus cavernosal relaxation, we evaluated comparatively the relaxation of phenylephrine-precontracted isolated corpus cavernosal strips of ADA+ and ADA−/− mice in response to nerve stimulation^73,74. The corpus cavernosum is under sympathetic influence to maintain a contracted state resulting in a flaccid penis^3. To emulate this situation, contraction was induced by treatment with the α-adrenergic receptor agonist, phenylephrine (10 μM). The maximum phenylephrine-induced contraction was reached within 10-20 s after application to cavernosal strips from ADA+ and ADA−/− mice. Electrical field stimulation (EFS) is commonly used to stimulate the nerves that innervate the smooth muscle cells of the corpus cavernosum to mediate relaxation, corresponding to normal physiological penile erection^19,73,74,92,93. In our studies, EFS induced relaxation of corpus cavernosal strips from both ADA+ and ADA−/− mice in a voltage and frequency-dependent manner (FIGS. 14b and c). For ADA+ mice, relaxation increased incrementally over a standard voltage range with a maximal response at 20 V and 30 Hz.
Elevated adenosine in ADA-deficient mice contributes to increased corpus cavernosal strip relaxation. […]
Function experiments. […] The contractility of each isolated corpus cavernosum smooth muscle cells (CCSM) strip was measured using an isometric force transducer (AD Instrument Inc., Georgia, Vt., USA). […] The contractile responses of the strips were analysed by adding 10 μM phenylephrine to the bath, and force changes were recorded in response to drug application and to electrical field stimulation. […] The changes of cAMP and cGMP contents in CC strips were subsequently measured by commercial enzyme immunoassay kit (Amersham Pharmacia) (see below).

[5] = system: corpus cavernosal strips (CCS); test: EFS-induced relaxation of CCS of SCD transgenic mice and controls; type: cell-based, mouse
Description: FIG. 21. Priapic activity seen in SCD transgenic mice is dependent on elevated adenosine in penis via A2BR signaling. (a) Adenosine levels in the penis increased in SCD transgenic mice. Perchloric acid extracts of penile tissues from SCD transgenic mice and control mice were analyzed by HPLC to determine the levels of adenosine. The data are expressed as mean±SE. *p<0.005, (control n=5 and SCD transgenic mice n=6), SCD transgenic mice versus the controls. (b) Increased corpus cavernosum strips (CCS) relaxation by electrical field stimulation (EFS) in SCD transgenic mice. Relaxation effect of EFS with different voltages (0-30V) at 30 Hz and 0.5 ms pulse width, alternating polarity between pulses, in 10 μM phenylephrine-precontracted CCS from the controls (n=5) and SCD transgenic mice (n=5). (c-e) Prolonged penile erection seen in SCD transgenic mice is due to high levels of adenosine in the penis via A2BR signaling. Average EFS-induced relaxation from the PE-precontracted CC strips of the controls and SCD transgenic mice treated without or with PEG-ADA, MRS1706 or ZM241389. EFS-induced force change (c), duration of relaxation by EFS (d) and area under basal line (e) were representative of the CCS relaxation. (n=5 for the controls and n=5 for SCD transgenic mice with or without PEG-ADA, MRS1706 or ZM241389 treatment, respectively). Data are given as means±SE. *p<0.05, SCD transgenic mice versus the controls, **p<0.05, CCS of […] with PEG-ADA, MRS1706 or ZM241389 treatment versus CCS of SCD transgenic mice without treatment; ***p<0.05, CCS of the control mice with MRS1706 and/or L-NAME treatment versus CCS of the control mice without treatment.
Sickle cell disease (SCD) transgenic mice, expressing exclusively human sickle hemoglobin, were also used. These mice were age-matched, adult male homozygotes [SS^−/−, consisting of a transgene and two targeted gene deletions: (Tg (Hu-miniLCR alpha 1G gamma A gamma delta beta s) Hba0//Hba0 Hbb0//Hbb00) and heterozygotes (SS^−/+, SS^−/− genotype except Hbb0//Hbb+), developed on a mixed-strain background (mouse strains FVB/N, 129, DBA/2, C57BL/6, Black Swiss)^94,95.
as §1

ADA-deficient mice [6] = test: Spontaneous prolonged penile erection (priapic activity) in ADA-deficient mice, PEG-ADA enzyme therapy; type: in vivo, mouse; details: intraperitoneal injection of PEG-ADA
Description: The ADA-deficient mice were injected with PEG-ADA weekly. During the course of maintaining our production colony of ADA-deficient mice, we noticed that ADA-deficient male breeders (kept alive by enzyme therapy) frequently presented with prolonged penile erections lasting up to 72 hours (FIG. 1a). The penile erections were typically noticed at the time of the scheduled weekly PEG-ADA injection. We know from earlier studies that the lowest levels of circulating adenosine are achieved during the first day following the PEG-ADA injection^21,28. Adenosine levels rise continually during the subsequent days preceding the next PEG-ADA injection. Thus, adenosine levels are highest just prior to the scheduled weekly injection of PEG-ADA when the priapism was observed^21,28. Priapic erections were never observed in wild type male mice (FIG. 14a).
Prolonged penile erection in ADA-deficient mice depends on pronounced accumulation of adenosine in the penis. We hypothesized that the increased penile erection and corpus cavernosal smooth muscle relaxation in response to nerve stimulation in ADA-deficient mice were due to elevated concentrations of adenosine. To test this hypothesis, adenosine levels were quantified in penile tissue from ADA^+ and ADA^−/− mice^21,23,28. […]

With `CCCn1c(=O)c2[nH]c(-c3cnn(Cc4cccc(C(F)(F)F)c4)c3)nc2n(CC)c1=O` [CVT-6883] as the molecule, how does the “adenosine-mediated pulmonary fibrosis and enlargement of alveolar airspaces” value (ADA-deficient mice [1]) read?
Its value is “significantly reduces adenosine-mediated pulmonary fibrosis and enlargement of alveolar airspaces”.

Which results are given for `Cn1c(=O)c2[nH]cnc2n(C)c1=O` [theophyline, theophylline]?
adenosine-induced penile tumescence [2]: inhibited adenosine-induced penile tumescence; inhibition of adenosine-mediated corpus cavernosal strip relaxation [3]: significantly inhibited adenosine-mediated corpus cavernosal strip relaxation in a dosage dependent manner

Which “time to maximum phenylephrine-induced contraction” value ([4]; 10 μM, cavernosal strips from ADA+ and ADA-/- mice) does the source give for `CNC[C@H](O)c1cccc(O)c1` [phenylephrine] here?
Its value is 10 to 20 s.

B1: PEG-ADA: purified bovine ADA covalently modified with activated polyethylene glycol; modified form of ADA used for enzyme therapy (protein, UniProt P56658 2-363, looked up)
Adenosine deaminase: AQTPAFNKPKVELHVHLDGAIKPETILYYGRKRGIALPADTPEELQNIIGMDKPLSLPEFLAKFDYYMPAIAGCREAVKRIAYEFVEMKAKDGVVYVEVRYSPHLLANSKVEPIPWNQAEGDLTPDEVVSLVNQGLQEGERDFGVKVRSILCCMRHQPSWSSEVVELCKKYREQTVVAIDLAGDETIEGSSLFPGHVKAYAEAVKSGVHRTVHAGEVGSANVVKEAVDTLKTERLGHGYHTLEDATLYNRLRQENMHFEVCPWSSYLTGAWKPDTEHPVVRFKNDQVNYSLNTDDPLIFKSTLDTDYQMTKNEMGFTEEEFKRLNINAAKSSFLPEDEKKELLDLLYKAYGMPSPASAEQCL
modifications: PEG
notes: modified form of ADA used for enzyme therapy
For B1, which “pulmonary inflammation and fibrosis” value (ADA-deficient mice [1]; lowering adenosine by PEG-ADA therapy) is on record?
Its value is “can prevent and even reverse aspects of pulmonary inflammation and fibrosis”.

What about the “force, duration and area under baseline of EFS-induced relaxation” value (shortened to “force, duration and area under baseline”) ([5]; CCS of SCD transgenic mice versus untreated CCS) of the same molecule?
The value was “significantly reduced the force, duration and area under baseline”.

And the “force, duration and area under baseline” value ([5]; CCS of the controls)?
The value was “decreased the force, duration and area under baseline”.

What about the “force, duration and area under baseline” value ([4]; CCS from ADA-/- mice, EFS 5V and 30 Hz for 60 s, versus untreated CCS) of the same molecule?
The value was “significantly reduced the force, duration and area under baseline”.

What about the “EFS-induced CCS relaxation” value ([4]; CCS of control (ADA+) mice, EFS 5V and 30 Hz) of the same molecule?
Its value is “decreased the EFS-induced CCS relaxation”.

And the “prolonged penile erection / priapic activity” value (ADA-deficient mice [6])?
Its value is “quickly corrected; also recorded: quickly reverses the priapic activity; also recorded: relieved the prolonged penile erection”.
